Our source for the Kd, koff and kon values is article PMC5066845.

Assay [1] addresses F-actin polymerised on a streptavidin biosensor from biotinylated and non-biotinylated G-actin (1:4) (rabbit | human) (UniProt P68135). The experiment in a line: BLI. (BLI is a label-free optical method that tracks binding on a fibre tip over time.)
In assay [2] the target is mouse DNGR-1 extracellular domain (ECD), wild type (mouse). The experiment in a line: BLI.

A value given as a limit tells only on which side of the number the result lay.

Broadly, the Kd is the free concentration of one partner at which half of the binding sites on the other are occupied at equilibrium, for simple one-to-one binding. Consider “mouse DNGR-1 ECD N140A Y150A (domain or fragment)”, for which the Kd in assay [1] turned out to be 2700 nM. On the same count and under the same terms, then “mouse DNGR-1 ECD K251A (domain or fragment)”, with above 50000 nM; and “mouse DNGR-1 ECD W155A W250A (domain or fragment)”, with above 100000 nM.

One may read the koff as the rate constant with which the complex falls apart. Low readings indicate slow dissociation, high ones fast dissociation. Usually kon stands for the second-order rate constant of association. Low values mean slower complex formation, high ones faster complex formation. In assay [1], “mouse DNGR-1 extracellular domain (ECD), wild type (domain or fragment)” had a Kd of 1600 nM, a koff of 0.848 s⁻¹ and a kon of 1.5e+06 M⁻¹ s⁻¹. In assay [2], “short F-actin filaments capped and stabilized with gelsolin (from UniProt P60709;P06396) (complex)” came in with a Kd of 8.7 nM, a koff of 6.4e-05 s⁻¹ and a kon of 7600 M⁻¹ s⁻¹.
